# Data from patent US20250302974A1, “LECTIN-DRUG CONJUGATES” (UNICHEM LABORATORIES LIMITED, priority 2021, published 2025).
# B1: SEQ ID NO: 2: recombinant variant of the S. rolfsii lectin amino acid sequence (reported as Rec-2 in WO2010/095143) (protein)
# chain: TYKITVRVYQTNPDAFFHPVEKTVWKYANGGTWTITDDQHVLTMGGSGTSGTLRFHADNGESFTATFGVHNYKRWCDIVTNLAADETGMVINQQYYSQKNREEARERQLSNYQVKNAKGRNFQIVYTEAEGNDLHANLIIG
# Experiments:
# [1] = test system: bladder cancer cells (T24); assay: Colocalization study in cell organelles, confocal microscopy, FITC-tagged lectin; format: cell-based; conditions: 100 μg/mL FITC-labelled, 2 h
# Method: Study was performed to analyze the localization of SEQ ID NO 2 (test item) in cell organelles using Confocal microscopy.
# Test Item provided as aqueous solution was tagged with FITC label at Bioklone Biotech Pvt Ltd. Resultant concentration of FITC tagged test Item was 1 mg/mL.
# The stock solution of Test Item was diluted in Serum Free Medium (SFM) at single concentration—100 μg/mL.
# Cells were plated on a glass coverslip at a density of 0.1×10^6 cells per well.
# Following the incubation cells were washed with PBS (3 washes) and fixed using 4% paraformaldehyde for 10 min at RT. After fixation, cells were permeabilized using 0.5% IGEPAL for 10 min at RT (Permeabilization was not done for cells that were stained with Pan-Cadherin). Post permeabilization, cells were blocked using 5% normal goat serum for 1 hour at RT. Post blocking, cells were treated with organelle specific markers for 1.5 hours at RT followed by secondary antibody for 2 hours at RT.
# Following antibodies were used for different organelles:
# Post incubation, cells were washed using PBST (3 washes) and PBS (3 washes) and stained with DAPI (nucleus stain) for 3 min at RT.
# Cells were washed (3 washes) and mounted on a glass slide using Prolong Glass antifade mountant. Imaging was done using Confocal fluorescence microscope (Make: Olympus FV1000) at AIRF, JNU. Images were captured using software FluoView. […]
# PBMC Normal = assay: Cytotoxic effect by MTT assay, 48 h; conditions: for Percent cytotoxicity wrt control: PBMC, 48 h
# Method: (§1) Cells were treated with Test Items at various concentrations (0.0001 μM-10 μM) for 48 h. The cells corresponding to Positive Control group were treated with Doxorubicin at a concentration ranging from 0.1 μM-100 μM. The Untreated cells were used as Control. After 48 h of incubation, the effect of Test Items on cytotoxicity of cells was determined by MTT assay, the plates were taken out and 20 μl of 5 mg/m1 of MTT 3-(4,5-dimethythiazol-2-yl)-2,5-diphenyl tetrazolium bromide solution was added to all the wells. Cells were incubated for 3 h at 37° C. The supernatant was aspirated. 150 μl of DMSO was added to each well to dissolve formazan crystals. The absorbance of each well was then read at 540 nm using Synergy HT micro plate reader.
# (§2) The % Cytotoxicity was calculated using the formula:
# (§3) Where, X=Absorbance of cells treated with Test Item; R=Absorbance of Control cells (Untreated cells maintained in growth medium only).
# [2] = Glycan binding study, N-Glycan array containing 100 glycans
# PA-1 Ovary = assay: Cytotoxic effect by MTT assay, 48 h; conditions: for Percent cytotoxicity wrt control: 48 h
# Method: as §1, §2, §3
# (§4) Selectivity Index was calculated using the formula:
# (§5) SI=IC50 in Normal cell/IC50 in cancer cell.
# (§6) Activity scores of the Selective Index values were categorized as: • Not selective (SI value ≤1) • Moderately selective (1<SI value <5) • Selective (SI value ≥5)
# MDA-MB-231 Breast = assay: Cytotoxic effect by MTT assay, 48 h; conditions: for Percent cytotoxicity wrt control: 48 h
# Method: as §1, §2, §3, §4, §5, §6
# U251 MG Brain = assay: Cytotoxic effect by MTT assay, 48 h; conditions: for Percent cytotoxicity wrt control: U251 MG, 48 h
# Method: as §1, §2, §3, §4, §5, §6
# AGS Stomach = assay: Cytotoxic effect by MTT assay, 48 h; conditions: for Percent cytotoxicity wrt control: AGS, 48 h
# Method: as §1, §2, §3, §4, §5, §6
# T24 Bladder = assay: Cytotoxic effect by MTT assay, 48 h; conditions: for Percent cytotoxicity wrt control: 48 h
# Method: as §1, §2, §3, §4, §5, §6
# KB Cervix = assay: Cytotoxic effect by MTT assay, 48 h; conditions: for Percent cytotoxicity wrt control: KB, 48 h
# Method: as §1, §2, §3, §4, §5, §6
# PANC-1 Pancreatic = assay: Cytotoxic effect by MTT assay, 48 h; conditions: for Percent cytotoxicity wrt control: 48 h
# Method: as §1, §2, §3, §4, §5, §6
# HT29 Colon = assay: Cytotoxic effect by MTT assay, 48 h; conditions: for Percent cytotoxicity wrt control: 48 h
# Method: as §1, §2, §3, §4, §5, §6
# MG-63 Bone = assay: Cytotoxic effect by MTT assay, 48 h; conditions: for Percent cytotoxicity wrt control: 48 h
# Method: as §1, §2, §3, §4, §5, §6
molecule,measurement,setting,value
B1,colocalization in cell organelles,[1],"colocalized in Mitochondria, Endoplasmic reticulum, Golgi bodies and Plasma membrane"
same,localization in the nuclear envelope,[1],no localization was observed
same,Percent cytotoxicity wrt control,PBMC Normal; 0.0001 μM,−7.4%
same,Percent cytotoxicity wrt control,PBMC Normal; 0.001 μM,19.9%
same,Percent cytotoxicity wrt control,PBMC Normal; 0.01 μM,24%
same,Percent cytotoxicity wrt control,PBMC Normal; 0.1 μM,44.9%
same,Percent cytotoxicity wrt control,PBMC Normal; 1 μM,49.5%
same,Percent cytotoxicity wrt control,PBMC Normal; 10 μM,43.4%
same,IC50,"PBMC Normal; read-out: IC50 Values, PBMC Normal, after 48 h of treatment",> 10000 nM
same,binding to N-glycans (in words),[2],specific binding
same,Percent cytotoxicity wrt control,"PA-1 Ovary; PA-1, 0.0001 μM",0.9%
same,Percent cytotoxicity wrt control,"PA-1 Ovary; PA-1, 0.001 μM",−5.6%
same,Percent cytotoxicity wrt control,"PA-1 Ovary; PA-1, 0.01 μM",7.4%
same,Percent cytotoxicity wrt control,"PA-1 Ovary; PA-1, 0.1 μM",4.5%
same,Percent cytotoxicity wrt control,"PA-1 Ovary; PA-1, 1 μM",51%
same,Percent cytotoxicity wrt control,"PA-1 Ovary; PA-1, 10 μM",72.2%
same,IC50,"PA-1 Ovary; read-out: IC50 Values, PA-1 Ovary, after 48 h of treatment",1540 nM
same,Percent cytotoxicity wrt control,"MDA-MB-231 Breast; MDA-MB-231, 0.0001 μM",13.7%
same,Percent cytotoxicity wrt control,"MDA-MB-231 Breast; MDA-MB-231, 0.001 μM",15.1%
same,Percent cytotoxicity wrt control,"MDA-MB-231 Breast; MDA-MB-231, 0.01 μM",16.2%
same,Percent cytotoxicity wrt control,"MDA-MB-231 Breast; MDA-MB-231, 0.1 μM",28.1%
same,Percent cytotoxicity wrt control,"MDA-MB-231 Breast; MDA-MB-231, 1 μM",48.5%
same,Percent cytotoxicity wrt control,"MDA-MB-231 Breast; MDA-MB-231, 10 μM",66.4%
same,IC50,"MDA-MB-231 Breast; read-out: IC50 Values, MDA-MB-231 Breast, after 48 h of treatment",1350 nM
same,Percent cytotoxicity wrt control,U251 MG Brain; 0.0001 μM,−9.9%
same,Percent cytotoxicity wrt control,U251 MG Brain; 0.001 μM,−13.2%
same,Percent cytotoxicity wrt control,U251 MG Brain; 0.01 μM,−14.5%
same,Percent cytotoxicity wrt control,U251 MG Brain; 0.1 μM,−5.3%
same,Percent cytotoxicity wrt control,U251 MG Brain; 1 μM,15.9%
same,Percent cytotoxicity wrt control,U251 MG Brain; 10 μM,62.5%
same,IC50,"U251 MG Brain; read-out: IC50 Values, U251 MG Brain, after 48 h of treatment",5950 nM
same,Percent cytotoxicity wrt control,AGS Stomach; 0.0001 μM,7.8%
same,Percent cytotoxicity wrt control,AGS Stomach; 0.001 μM,8.5%
same,Percent cytotoxicity wrt control,AGS Stomach; 0.01 μM,15.9%
same,Percent cytotoxicity wrt control,AGS Stomach; 0.1 μM,37%
same,Percent cytotoxicity wrt control,AGS Stomach; 1 μM,49.9%
same,Percent cytotoxicity wrt control,AGS Stomach; 10 μM,57.2%
same,IC50,"AGS Stomach; read-out: IC50 Values, AGS Stomach, after 48 h of treatment",1720 nM
same,Percent cytotoxicity wrt control,"T24 Bladder; T24, 0.0001 μM",9.7%
same,Percent cytotoxicity wrt control,"T24 Bladder; T24, 0.001 μM",11.1%
same,Percent cytotoxicity wrt control,"T24 Bladder; T24, 0.01 μM",9.1%
same,Percent cytotoxicity wrt control,"T24 Bladder; T24, 0.1 μM",10.5%
same,Percent cytotoxicity wrt control,"T24 Bladder; T24, 1 μM",43.1%
same,Percent cytotoxicity wrt control,"T24 Bladder; T24, 10 μM",68.7%
same,IC50,"T24 Bladder; read-out: IC50 Values, T24 Bladder, after 48 h of treatment",2130 nM
same,Percent cytotoxicity wrt control,KB Cervix; 0.0001 μM,−1.5%
same,Percent cytotoxicity wrt control,KB Cervix; 0.001 μM,−2.6%
same,Percent cytotoxicity wrt control,KB Cervix; 0.01 μM,−3.9%
same,Percent cytotoxicity wrt control,KB Cervix; 0.1 μM,20.4%
same,Percent cytotoxicity wrt control,KB Cervix; 1 μM,51.2%
same,Percent cytotoxicity wrt control,KB Cervix; 10 μM,54.9%
same,IC50,"KB Cervix; read-out: IC50 Values, KB Cervix, after 48 h of treatment",880 nM
same,Percent cytotoxicity wrt control,"PANC-1 Pancreatic; PANC-1, 0.0001 μM",9.5%
same,Percent cytotoxicity wrt control,"PANC-1 Pancreatic; PANC-1, 0.001 μM",17%
same,Percent cytotoxicity wrt control,"PANC-1 Pancreatic; PANC-1, 0.01 μM",20.5%
same,Percent cytotoxicity wrt control,"PANC-1 Pancreatic; PANC-1, 0.1 μM",22.5%
same,Percent cytotoxicity wrt control,"PANC-1 Pancreatic; PANC-1, 1 μM",34.4%
same,Percent cytotoxicity wrt control,"PANC-1 Pancreatic; PANC-1, 10 μM",36.4%
same,IC50,"PANC-1 Pancreatic; read-out: IC50 Values, PANC-1 Pancreatic, after 48 h of treatment",> 10000 nM
same,Percent cytotoxicity wrt control,"HT29 Colon; HT29, 0.0001 μM",14%
same,Percent cytotoxicity wrt control,"HT29 Colon; HT29, 0.001 μM",16.6%
same,Percent cytotoxicity wrt control,"HT29 Colon; HT29, 0.01 μM",22.5%
same,Percent cytotoxicity wrt control,"HT29 Colon; HT29, 0.1 μM",24.7%
same,Percent cytotoxicity wrt control,"HT29 Colon; HT29, 1 μM",35.4%
same,Percent cytotoxicity wrt control,"HT29 Colon; HT29, 10 μM",54.1%
same,IC50,"HT29 Colon; read-out: IC50 Values, HT29 Colon, after 48 h of treatment",9390 nM
same,Percent cytotoxicity wrt control,"MG-63 Bone; MG-63, 0.0001 μM",27%
same,Percent cytotoxicity wrt control,"MG-63 Bone; MG-63, 0.001 μM",38.7%
same,Percent cytotoxicity wrt control,"MG-63 Bone; MG-63, 0.01 μM",50.4%
same,Percent cytotoxicity wrt control,"MG-63 Bone; MG-63, 0.1 μM",59.1%
same,Percent cytotoxicity wrt control,"MG-63 Bone; MG-63, 1 μM",72.3%
same,Percent cytotoxicity wrt control,"MG-63 Bone; MG-63, 10 μM",74%
same,IC50,"MG-63 Bone; read-out: IC50 Values, MG-63 Bone, after 48 h of treatment",12.7 nM
